The data set deals with the molecule itself. In words: negative-staining electron microscopy.

From publication PMC4561730 (Molecular and Cellular Biology, 2015) come the findings set out here.

What is called stoichiometry N is the number of molecules, sites or subunits per partner or assembly.

B1: recombinant glutathione S-transferase (GST)-SAM protein (GST fusion of the mouse Bicc1 SAM domain) (domain or fragment, UniProt Q99MQ1 875-938, looked up)
chain: FKGSDLPELFSKLGLGKYTDVFQQQEIDLQTFLTLTDQDLKELGITTFGARRKMLLAISELSKN
In the case of B1, the “stoichiometry N” value is about 40 units.
